In patent US20120058906A1 (published 2012):

Legend:
[1] = biological target: T1, rHuman Erythropoietin R/Fc Chimera, CF (R&D Systems Cat#963-ER) (human, UniProt P19235 25-250); experiment: ECL (MSD multi-spot) titration, Fab at 0.01859 uM; blank spot 1776
T1 construct: Bought protein; also called EPO R/Fc; EPOR; not shown: Fc of the bought chimera
T1 sequence: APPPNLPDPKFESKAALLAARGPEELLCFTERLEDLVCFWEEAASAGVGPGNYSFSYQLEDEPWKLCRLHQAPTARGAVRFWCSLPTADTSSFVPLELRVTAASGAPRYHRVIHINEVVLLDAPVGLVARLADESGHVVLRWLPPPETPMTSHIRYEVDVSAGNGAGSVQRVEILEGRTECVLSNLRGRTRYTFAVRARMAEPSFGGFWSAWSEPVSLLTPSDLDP

[2] = biological target: T2, rHuman P-Cadherin/Fc Chimera, CF (R&D Systems Cat#861-PC) (human, UniProt P22223 108-654); experiment: as above
T2 construct: Bought protein; not shown: Fc of the bought chimera

[3] = biological target: T3, Recombinant Human DLL4 (R&D Systems Cat#1506-D4/CF) (human, UniProt Q9NR61 27-524); experiment: as above
T3 construct: Bought protein; also called delta-like protein 4

[4] = biological target: T4, rHuman Notch-1/Fc Chimera, CF (R&D Systems Cat#3647-TK) (human, UniProt P46531 19-526); experiment: as above
T4 construct: Bought protein; not shown: Fc of the bought chimera

[5] = biological target: T5, rHuman EGF R/Fc Chimera, CF (R&D Systems Cat#344-ER) (human, UniProt P00533 25-645); experiment: as above
T5 construct: Bought protein; also called epidermal growth factor receptor; not shown: Fc of the bought chimera

[6] = biological target: T6, rHuman IGF-1 sR, CF (R&D Systems Cat#391-GR) (human, UniProt P08069 31-932); experiment: as above
T6 construct: Bought soluble receptor; also called insulin-like growth factor-1 soluble receptor; IGF-R1

[7] = biological target: T1, rHuman Erythropoietin R/Fc Chimera, CF …; experiment: ECL (MSD multi-spot) titration, Fab at 1.19 uM; blank spot 24999
[8] = biological target: T2, rHuman P-Cadherin/Fc Chimera, CF (R&D …); experiment: as above
[9] = biological target: T3, Recombinant Human DLL4 (R&D Systems …); experiment: as above
[10] = biological target: T4, rHuman Notch-1/Fc Chimera, CF (R&D …); experiment: as above
[11] = biological target: T5, rHuman EGF R/Fc Chimera, CF (R&D …); experiment: as above
[12] = biological target: T6, rHuman IGF-1 sR, CF (R&D Systems …); experiment: as above
[13] = biological target: T1, rHuman Erythropoietin R/Fc Chimera, CF …; experiment: ECL (MSD multi-spot) titration, Fab at 0.07438 uM; blank spot 2504
[14] = biological target: T2, rHuman P-Cadherin/Fc Chimera, CF (R&D …); experiment: as above
[15] = biological target: T3, Recombinant Human DLL4 (R&D Systems …); experiment: as above
[16] = biological target: T4, rHuman Notch-1/Fc Chimera, CF (R&D …); experiment: as above
[17] = biological target: T5, rHuman EGF R/Fc Chimera, CF (R&D …); experiment: as above
[18] = biological target: T6, rHuman IGF-1 sR, CF (R&D Systems …); experiment: as above
[19] = biological target: T1, rHuman Erythropoietin R/Fc Chimera, CF …; experiment: ECL (MSD multi-spot) titration, Fab at 0.2975 uM; blank spot 5019
[20] = biological target: T2, rHuman P-Cadherin/Fc Chimera, CF (R&D …); experiment: as above
[21] = biological target: T3, Recombinant Human DLL4 (R&D Systems …); experiment: as above
[22] = biological target: T4, rHuman Notch-1/Fc Chimera, CF (R&D …); experiment: as above
[23] = biological target: T5, rHuman EGF R/Fc Chimera, CF (R&D …); experiment: as above
[24] = biological target: T6, rHuman IGF-1 sR, CF (R&D Systems …); experiment: as above
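Also: blank spot per well as comparator with Hit at signal to blank ratio of 4 or more.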

B1: Fab VH1-46_IGHD6-13*01_IGHJ4*01 & L2_IGKJ1*01 (Fab, V domains shown)
VH: QVQLVQSGAEVKKPGASVKVSCKASGYTFTSYYMHWVRQAPGQGLEWMGIINPSGGSTSYAQKFQGRVTMTRDTSTSTVYMELSSLRSEDTAVYYCAREGYSSSWYDYFDYWGQGTLVTVSS
VL: not shown
notes: also called Fab No. 7
ECL signal [1]: 188000
ECL signal [2]: 11700
ECL signal [3]: 18900
ECL signal [4]: 17600
ECL signal [5]: 11800
ECL signal [6]: 3780
ECL signal [7]: 193000
ECL signal [8]: 69700
ECL signal [9]: 74900
ECL signal [10]: 72000
ECL signal [11]: 62500
ECL signal [12]: 35200
ECL signal [13]: 154000
ECL signal [14]: 14800
ECL signal [15]: 20700
ECL signal [16]: 22000
ECL signal [17]: 16600
ECL signal [18]: 5800
ECL signal [19]: 167000
ECL signal [20]: 26000
ECL signal [21]: 34700
ECL signal [22]: 37500
ECL signal [23]: 42200
ECL signal [24]: 17400
